Ends that are not written are not given here. (Gd-DOTA)4‑MI = maleimide-bearing lysine-based tetramer of four Gd(III)-DOTA-monoamide chelates
Tests used:
[1] = target: T1, immobilized human recombinant tropoelastin (Homo sapiens, UniProt P15502); experiment: Surface plasmon resonance binding affinity (kinetic mode, 1:1 Langmuir model); conditions: SPR Biacore 2000, CM5 chip, 25 °C, HEPES running buffer pH 7.4; mean ± SD of triplicate measurements
T1 construct: purchased Advanced BioMatrix 5052-1MG
T1 sequence (P15502 27-786): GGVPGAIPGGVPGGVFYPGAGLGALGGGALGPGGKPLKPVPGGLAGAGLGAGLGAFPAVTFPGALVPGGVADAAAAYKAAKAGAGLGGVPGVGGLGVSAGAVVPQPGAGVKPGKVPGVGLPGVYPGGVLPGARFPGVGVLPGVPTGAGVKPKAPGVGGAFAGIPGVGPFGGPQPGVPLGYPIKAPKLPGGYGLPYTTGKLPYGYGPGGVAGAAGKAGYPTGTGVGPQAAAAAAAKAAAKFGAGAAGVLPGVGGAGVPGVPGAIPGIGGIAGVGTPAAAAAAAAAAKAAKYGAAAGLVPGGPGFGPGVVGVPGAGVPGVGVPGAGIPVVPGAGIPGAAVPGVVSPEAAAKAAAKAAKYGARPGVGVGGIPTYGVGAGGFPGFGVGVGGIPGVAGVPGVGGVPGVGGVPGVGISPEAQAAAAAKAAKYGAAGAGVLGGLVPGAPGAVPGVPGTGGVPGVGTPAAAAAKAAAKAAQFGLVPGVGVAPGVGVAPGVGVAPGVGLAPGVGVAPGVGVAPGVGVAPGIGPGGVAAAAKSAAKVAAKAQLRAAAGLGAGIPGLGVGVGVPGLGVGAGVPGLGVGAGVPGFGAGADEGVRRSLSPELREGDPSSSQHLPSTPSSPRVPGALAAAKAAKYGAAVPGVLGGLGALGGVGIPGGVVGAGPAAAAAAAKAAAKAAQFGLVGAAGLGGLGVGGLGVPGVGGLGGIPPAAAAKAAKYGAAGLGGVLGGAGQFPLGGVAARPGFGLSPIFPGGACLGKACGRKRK
Description: The binding affinity of Gd-TESMA and Gd4-TESMA to tropoelastin was assessed by surface plasmon resonance (SPR) under the kinetic affinity mode.
The binding affinity between tropoelastin (human recombinant tropoelastin, Advanced BioMatrix, Cat. No. 5052-1MG, Batch No. 7932) and Gd4-TESMA or Gd-TESMA was assessed by surface plasmon resonance (SPR) on a Biacore 2000 instrument (Cytiva). The instrument was equipped with a CM5 sensor chip carrying carboxymethylated dextran (Cytiva). First, the ligand was immobilized on the sensor chip surface by amine coupling: the flow cell was activated for 7 min by a 1-ethyl-3-(3-dimethylaminopropyl)carbodiimide hydrochloride (EDC)/N-hydroxysuccinimide (NHS) mixture. Then, tropoelastin was injected at 200 μM in a 10 mM sodium acetate buffer (pH 4) with a flow rate of 5 μL min^–1 to reach an immobilization level corresponding to 3500–5000 resonance units (R.U.). The remaining active sites were blocked by 1 M of ethanolamine-HCl (pH 8.5) for 7 min. As a control for nonspecific interaction, another flow cell on the CM5 sensor chip was treated in the same manner but without adding tropoelastin. […] The equilibrium dissociation constant (KD) and the kinetic association and dissociation rate constants (ka and kd) were determined by curve-fitting using the 1:1 Langmuir binding model implemented in the Biaevaluation software 4.1.1.[48] […]

[2] = 1H NMRD profile fitting (SBM and Freed theory); assay type: physicochemical; conditions: HEPES buffer pH 7.2; Gd-TESMA NMRD at 2.3 mM
Description: Figure 4 ^1H NMRD profiles showing the millimolar relaxivity per gadolinium r1p of Gd-TESMA (2.3 mM, solid symbols) and Gd4-TESMA (1.3 mM, open symbols) in the HEPES buffer (pH 7.2) at 298 K (circles) and 310 K (squares). The solid line represents the best fitting of the experimental points at 310 K to the SBM and Freed theory of paramagnetic relaxation. The following parameters were kept fixed: water diffusion coefficient (D) = 3.1 10^–5 cm^2 s^–1; distance between Gd(III) and the inner sphere water protons (r) = 3.1 Å; number of inner sphere water molecules (q) = 1; and distance of the closest approach of outer-sphere water protons = 3.8 Å. Curve fitting converged to the following: correlation time for molecular reorientation (τR) = 170 ps; residence lifetime of the inner sphere water molecule (τM) = 460 ns; correlation time for electronic relaxation (τv) = 47 ps; and zero-field splitting energy (Δ^2) = 1.3 10^19 s^–2. […]
The water proton longitudinal relaxation rates as a function of the magnetic field strength were measured in aqueous solutions using a Fast Field-Cycling Stelar SmarTracer relaxometer (Stelar s.r.l., Mede (PV), Italy) over a continuum of magnetic field strengths from 0.00024 to 0.25 T (corresponding to 0.01–10 MHz proton Larmor frequencies). […]

[3] = system: atherosclerotic plaques in the brachiocephalic artery of ApoE–/– mice; experiment: In vivo LGE MRI at 3 T in atherosclerotic ApoE–/– mice; conditions: 0.2 mmol kg^–1 i.v.
Description: The Gd4-TESMA probe was assessed for its ability to enhance the MRI signal within plaques in the brachiocephalic artery of an ApoE^–/– murine model of plaque progression and in control nonatherosclerotic mice. For these studies, atherosclerotic ApoE^–/– mice were scanned after the tandem administration of Gd-ESMA, Gd-TESMA (24 h after the Gd-ESMA administration), and finally Gd4-TESMA (24 h after the Gd-TESMA administration; Supporting Information Figure S1). […] All molecular probes were injected at a dose of 0.2 mmol kg^–1 (corresponding to the same dose of injected gadolinium for Gd-ESMA and Gd-TESMA and to a dose of 0.8 mmolGd kg^–1 for Gd4-TESMA). […]
Following a 3D GRE scout scan, contrast-enhanced angiography images were acquired for visualization of the aortic root, aortic arch, and brachiocephalic and carotid arteries with a FOV = 30 × 30 × 8 mm, matrix = 200 × 200, in-plane resolution = 0.15 × 0.15 mm (reconstructed = 0.10 × 0.10 mm), slice thickness = 0.5 mm, TR/TE = 15/6.1 (ms), and flip angle = 40°. […] Late gadolinium enhanced images were acquired with an inversion-recovery 3D fast gradient echo sequence every 30 min for up to 2 h postinjection of the contrast agent and were used to visualize and quantify contrast uptake.

[4] = Relaxometry: water proton longitudinal relaxivity; assay type: physicochemical; conditions: 298 K, 3.8 mM HEPES, 150 mM NaCl, pH 7.2
Description: The relaxivity per gadolinium of Gd4-TESMA is 8.5 ± 0.2 mM^–1 s^–1 (at 20 MHz, 298 K, 3.8 mM HEPES, 150 mM NaCl, pH 7.2; Table 1), while that of Gd-TESMA under the same conditions cannot be defined uniquely as it changes with the concentration of the complex.
The water proton longitudinal relaxation rates as a function of the magnetic field strength were measured in aqueous solutions using a Fast Field-Cycling Stelar SmarTracer relaxometer (Stelar s.r.l., Mede (PV), […] MHz proton Larmor frequencies). The relaxometer operates under computer control with an absolute uncertainty in 1/T1 of 1%. […] The ^1H T1 relaxation times were acquired by the standard inversion recovery method with a typical 90° pulse width of 3.5 μs, 16 experiments, and 4 scans. The temperature was controlled using a Stelar VTC-91 airflow heater equipped with a calibrated copper–constantan thermocouple (uncertainty of ±0.1 °C).
MRI data are presented as median ± interquartile range (IQR). […] P values <0.05 were considered statistically significant.

[5] = Serum stability by RP-HPLC; conditions: male, human, 50% (v/v) aqueous pooled human serum
Description: The stabilities of Gd4-TESMA and the parent VVGS-peptide in human serum were evaluated by HPLC (Figure 6). Compounds were incubated up to 120 min, and aliquots were taken at different times: 0, 35, and 120 min.
The serum stabilities of Gd4-TESMA and its parent peptide (VVGS-peptide) were determined in 50% (v/v) aqueous pooled serum from human male AB plasma, which was purchased from Sigma-Aldrich (Milan, Italy). Samples were dissolved in water (6.6 mM), diluted in serum (previously centrifuged at 8000 rpm for 15 min at 4 °C) at a final concentration of 0.6 mM (220 μL), and subsequently incubated at 37 °C. Aliquots (6 μL) taken after 0, 35, and 120 min were diluted in water at a final concentration of 0.06 mM. The samples were analyzed by RP-HPLC using an Atlantis dC18 column, 5 μm, 4.6 × 150 mm, as described in ref ([47]). The amount of intact compound was estimated by integrating the area under the corresponding elution peak monitored at 210 nm. Five replicate experiments for each compound were carried out. The […] (HPLW peptide),[47] unrelated to TESMA, was used as a positive control.

[6] = target: T2, human recombinant tropoelastin (human, UniProt P15502 27-786); experiment: SPR; Biacore 2000; tropoelastin immobilised on a CM5 chip by amine coupling (3500-5000 R.U.); analyte injected at 20 uL/min for 3 min at 25 °C in HEPES running buffer (pH 7.4, HBS-P) or 10 mM HEPES; control flow cell subtracted; 1:1 Langmuir fit; triplicate; conditions: both partners purified
T2 construct: tropoelastin (soluble elastin precursor), human, recombinant; also called TE; source: bought: Advanced BioMatrix (Cat. No. 5052-1MG, Batch No. 7932)
T2 sequence (looked up): T1 sequence (P15502 27-786)

Gd-TESMA: single Gd-DOTA monoamide unit conjugated with a 15-residue peptide sequence (VVGS-peptide); monomeric counterpart, purchased (VVGSPSAQDEASPLS; also: single Gd-DOTA monoamide unit conjugated, site not given here) [reference compound]
dissociation rate constant kd [1]: 2.3 × 10^–2 ± 0.5 × 10^–2 s^–1
aggregation (inferred from concentration dependence of relaxivity and NMRD profile) [2]: self-assembled into aggregates with high polydispersity at relatively high concentrations
vessel wall-to-blood CNR at 0.5 h postinjection ([3]; ApoE–/– mice on HFD 16 weeks, 3 T LGE MRI, 0.5 h, median (IQR)): 6.75
relaxivity per gadolinium at 18 μM probe ([4]; 18 μM probe, 20 MHz): 6.1 mM^–1 s^–1
relaxivity r1 at 20 MHz, probe at 1 mM ([4]; 1 mM probe, 20 MHz, mean ± SD): 10.0 ± 0.3 mM^–1 s^–1
relaxivity r1 at 125 MHz, probe at 1 mM ([4]; 1 mM probe, 125 MHz, mean ± SD): 10.4 ± 0.3 mM^–1 s^–1
relaxivity per gadolinium at 2.3 mM probe ([4]; 2.3 mM probe, 20 MHz): 12.4 mM^–1 s^–1

C-GAESAPLVSSVQSPD [Gd4-scTESMA]
accumulation within plaques ([3]; ApoE–/– mice, LGE MRI, in comparison to Gd4-TESMA): low/negligible accumulation within plaques

VVGSPSAQDEASPLS [VVGS-peptide]
half-life at 0.6 mM [5]: ~45 min
remaining at 2 h, 0.6 mM [5]: ~20%

B1: Gd-TESMA (peptide)
peptide: VVGSPSAQDEASPLS
modifications: also: single Gd-DOTA monoamide unit conjugated, site not given here
notes: also called monomeric Gd-TESMA probe; source: bought: For Peptide Protein Research Limited (Fareham, UK)
Kd [6]: 28 µM
koff [6]: 0.023 s⁻¹
kon [6]: 880 M⁻¹ s⁻¹

B2: Gd4-TESMA (peptide)
peptide: C((Gd-DOTA)4‑MI)VVGSPSAQDEASPLS
modifications: also: Gd(III) chelates, thiol/maleimide conjugation
notes: also called tetrameric Gd4-TESMA probe; source: synthetic peptide (Fmoc SPPS), reacted with [Gd-DOTA]4-MI, purified by semipreparative HPLC
Kd [6]: 41 µM
